The text below walks through data of the supplement of paper PMC9112550, “Optimization of the antimicrobial peptide Bac7 by deep mutational scanning” (BMC Biology, 2022).

The test system of the series is Escherichia coli TOP10. Kind of series: shrunken log2 fold change of peptide-encoding DNA abundance (4.5 h post-induction vs induction); higher = less antimicrobial activity (less host growth inhibition). To be noted: time post-induction: 4.5 h; library: site-saturation at positions 5, 18, 19, 20.
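Note: peptides expressed intracellularly from a pBAD plasmid library in pooled LB shake-flask culture, induced with 0.3% L-arabinose, DNA abundance read by NGS, three biological replicates, DESeq2 with apeglm shrinkage.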

Turning to RRIRCRPPRLPRPRPRPDCPPRP, the “shrunken log2 fold change” value was -0.343.
The same measure for RRIRVRPPRLPRPRPRPFHKPRP: -0.385; for RRIRKRPPRLPRPRPRPCPMPRP: -0.15.
As for RRIRLRPPRLPRPRPRPNMWPRP, the “shrunken log2 fold change” value is -0.235.
For the sequence RRIRQRPPRLPRPRPRPCLEPRP, the “shrunken log2 fold change” value came to 0.0782.
RRIRTRPPRLPRPRPRPHSMPRP: the “shrunken log2 fold change” value was -0.665.
With RRIRDRPPRLPRPRPRPQPPPRP, the “shrunken log2 fold change” value is 0.424.
The same measure for RRIRKRPPRLPRPRPRPIFYPRP: -0.0532; for RRIRPRPPRLPRPRPRPNHSPRP: -0.553; for RRIRYRPPRLPRPRPRPATFPRP: -0.681.
Next, RRIRVRPPRLPRPRPRPQSPPRP: -0.221.
Next, RRIRCRPPRLPRPRPRPGSNPRP: -0.915; RRIRRRPPRLPRPRPRPCQFPRP: -0.0684.
RRIRERPPRLPRPRPRPFTFPRP: the “shrunken log2 fold change” value is -0.275.
On to RRIRWRPPRLPRPRPRPGLFPRP, for which the “shrunken log2 fold change” value amounted to 2.38.
Next, RRIRPRPPRLPRPRPRPACRPRP: 0.183; RRIRWRPPRLPRPRPRPGKFPRP: 0.26; RRIRKRPPRLPRPRPRPCQNPRP: 0.412.
The same measure for RRIRDRPPRLPRPRPRPFQMPRP: -0.57; for RRIRRRPPRLPRPRPRPDAFPRP: 0.737; for RRIRIRPPRLPRPRPRPRHLPRP: -0.458.
With RRIRDRPPRLPRPRPRPSFTPRP, the “shrunken log2 fold change” value was -0.404.
Next, RRIRSRPPRLPRPRPRPYVWPRP: -0.332; RRIRCRPPRLPRPRPRPIESPRP: 0.204.
For RRIRCRPPRLPRPRPRPSLKPRP, the “shrunken log2 fold change” value was -0.23.
The same measure for RRIRMRPPRLPRPRPRPFYVPRP: -0.514; for RRIRNRPPRLPRPRPRPYRQPRP: -0.01.
Next, RRIRWRPPRLPRPRPRPSKTPRP: 0.0507.
Turning to RRIRSRPPRLPRPRPRPFYAPRP, the “shrunken log2 fold change” value was -0.236.
Consider RRIRNRPPRLPRPRPRPTMRPRP, for which the “shrunken log2 fold change” value is 0.746.
Take RRIRMRPPRLPRPRPRPSSHPRP: the “shrunken log2 fold change” value is 0.0506.
Regarding RRIRFRPPRLPRPRPRPWLRPRP, the “shrunken log2 fold change” value is -0.0551.
The same measure for RRIRSRPPRLPRPRPRPQTHPRP: 0.901; for RRIRDRPPRLPRPRPRPEFQPRP: 0.4.
With RRIRNRPPRLPRPRPRPQLEPRP, the “shrunken log2 fold change” value is 0.307.
Next, RRIRMRPPRLPRPRPRPRRWPRP: 0.881; RRIRRRPPRLPRPRPRPGVVPRP: 0.281; RRIRARPPRLPRPRPRPALTPRP: 0.642.
The same measure for RRIRARPPRLPRPRPRPLAQPRP: 0.578; for RRIRSRPPRLPRPRPRPICRPRP: -0.0192; for RRIRWRPPRLPRPRPRPECNPRP: 0.457.
Next, RRIRLRPPRLPRPRPRPMVLPRP: -0.239.
Take RRIRERPPRLPRPRPRPTPYPRP: the “shrunken log2 fold change” value is -0.389.
Consider RRIRCRPPRLPRPRPRPGILPRP, for which the “shrunken log2 fold change” value is -0.233.
RRIRCRPPRLPRPRPRPSMIPRP: the “shrunken log2 fold change” value was -0.892.
Regarding RRIRIRPPRLPRPRPRPPFPPRP, the “shrunken log2 fold change” value was found to be 0.141.
Turning to RRIRARPPRLPRPRPRPHIFPRP, the “shrunken log2 fold change” value is 0.141.
RRIRGRPPRLPRPRPRPCYVPRP: the “shrunken log2 fold change” value was -0.0858.
The same measure for RRIRNRPPRLPRPRPRPAVFPRP: 0.0636; for RRIRMRPPRLPRPRPRPVDCPRP: 0.029.
Next, RRIRRRPPRLPRPRPRPMCFPRP: -0.0162.
The same measure for RRIRHRPPRLPRPRPRPIDWPRP: 0.0599; for RRIRYRPPRLPRPRPRPCSSPRP: -0.941; for RRIRTRPPRLPRPRPRPYICPRP: -0.143.
Regarding RRIRCRPPRLPRPRPRPLAIPRP, the “shrunken log2 fold change” value is -0.0224.
The same measure for RRIRHRPPRLPRPRPRPPEQPRP: -0.000687; for RRIRNRPPRLPRPRPRPHDMPRP: -0.137.
The same measure for RRIRLRPPRLPRPRPRPPPCPRP: 0.846.
Next, RRIRERPPRLPRPRPRPCHMPRP: 0.0597; RRIRRRPPRLPRPRPRPFIGPRP: -0.25.
For RRIRLRPPRLPRPRPRPVKIPRP, the “shrunken log2 fold change” value was -0.169.
Turning to RRIRHRPPRLPRPRPRPQCLPRP, the “shrunken log2 fold change” value was -0.0192.
In the case of RRIRWRPPRLPRPRPRPTDVPRP, the “shrunken log2 fold change” value was -0.283.
The same measure for RRIRVRPPRLPRPRPRPNIDPRP: -0.258.
Take RRIRFRPPRLPRPRPRPRLGPRP: the “shrunken log2 fold change” value turned out to be 0.347.
The same measure for RRIRRRPPRLPRPRPRPMCSPRP: -0.0511; for RRIRMRPPRLPRPRPRPNPFPRP: 0.211.
Next, RRIRTRPPRLPRPRPRPKQSPRP: 0.113.
Next, RRIRNRPPRLPRPRPRPHPPPRP: 0.304; RRIRRRPPRLPRPRPRPSERPRP: -0.0993.
As for RRIRFRPPRLPRPRPRPVDWPRP, the “shrunken log2 fold change” value stood at 0.194.
For the sequence RRIRDRPPRLPRPRPRPYLMPRP, the “shrunken log2 fold change” value is -0.187.
In the case of RRIRMRPPRLPRPRPRPALCPRP, the “shrunken log2 fold change” value turned out to be 0.221.
Next, RRIRWRPPRLPRPRPRPSRHPRP: 0.0203.
Regarding RRIRRRPPRLPRPRPRPPTNPRP, the “shrunken log2 fold change” value amounted to 0.643.
The same measure for RRIRWRPPRLPRPRPRPNMCPRP: -0.0387.
Turning to RRIRPRPPRLPRPRPRPVLIPRP, the “shrunken log2 fold change” value is -0.237.
Next, RRIRMRPPRLPRPRPRPRCTPRP: 0.6; RRIRWRPPRLPRPRPRPWACPRP: 0.0611.
The same measure for RRIRHRPPRLPRPRPRPMCDPRP: -0.0945; for RRIRQRPPRLPRPRPRPQQQPRP: -0.0448.
The same measure for RRIRPRPPRLPRPRPRPDGNPRP: 0.0274; for RRIRGRPPRLPRPRPRPMYNPRP: -0.104.
As for RRIRSRPPRLPRPRPRPDPRPRP, the “shrunken log2 fold change” value is 0.215.
The same measure for RRIRWRPPRLPRPRPRPVQTPRP: 0.459; for RRIRMRPPRLPRPRPRPHQVPRP: 0.423; for RRIRSRPPRLPRPRPRPQARPRP: 0.122.
Regarding RRIRNRPPRLPRPRPRPPVVPRP, the “shrunken log2 fold change” value was found to be 0.000966.
Next, RRIRSRPPRLPRPRPRPDMIPRP: -0.00286; RRIRWRPPRLPRPRPRPHRKPRP: 0.113; RRIRHRPPRLPRPRPRPPRPPRP: 0.664.
Next, RRIRGRPPRLPRPRPRPWHQPRP: 1.75.
As to RRIRARPPRLPRPRPRPMLWPRP, the “shrunken log2 fold change” value was 0.183.
The same measure for RRIRWRPPRLPRPRPRPTYPPRP: -0.553; for RRIRSRPPRLPRPRPRPGTFPRP: 0.0493.
Next, RRIRMRPPRLPRPRPRPNPIPRP: 0.188; RRIRTRPPRLPRPRPRPLNWPRP: -0.246; RRIRTRPPRLPRPRPRPKMSPRP: 0.116.
Consider RRIRVRPPRLPRPRPRPAVIPRP, for which the “shrunken log2 fold change” value is -0.0266.
Next, RRIRDRPPRLPRPRPRPAPIPRP: 0.32; RRIRIRPPRLPRPRPRPSKQPRP: -0.18.
The same measure for RRIRYRPPRLPRPRPRPSPNPRP: -1.34; for RRIRERPPRLPRPRPRPCQAPRP: -0.0282.
Next, RRIRNRPPRLPRPRPRPGNFPRP: -0.0496; RRIRIRPPRLPRPRPRPFTAPRP: -0.138; RRIRRRPPRLPRPRPRPFTCPRP: -0.0792.
For RRIRARPPRLPRPRPRPHWVPRP, the “shrunken log2 fold change” value was 0.0153.
The same measure for RRIRYRPPRLPRPRPRPIINPRP: -0.099.
The same measure for RRIRVRPPRLPRPRPRPKKHPRP: -0.0486; for RRIRQRPPRLPRPRPRPSERPRP: -0.143.
As for RRIRCRPPRLPRPRPRPYWCPRP, the “shrunken log2 fold change” value was -0.201.
Next, RRIRMRPPRLPRPRPRPKMAPRP: 2.29; RRIRTRPPRLPRPRPRPADGPRP: -0.0563; RRIRSRPPRLPRPRPRPHVYPRP: -0.355.
Next, RRIRIRPPRLPRPRPRPWGHPRP: -0.0191; RRIRFRPPRLPRPRPRPVMDPRP: -0.378.
Next, RRIRHRPPRLPRPRPRPQSGPRP: 0.165.
Turning to RRIRCRPPRLPRPRPRPLQGPRP, the “shrunken log2 fold change” value amounted to 0.0488.
The same measure for RRIRYRPPRLPRPRPRPHMTPRP: -0.845; for RRIRPRPPRLPRPRPRPRADPRP: 0.335.
The same measure for RRIRERPPRLPRPRPRPEPTPRP: 0.327.
Next, RRIRSRPPRLPRPRPRPMPYPRP: -0.278.
In the case of RRIRYRPPRLPRPRPRPHEYPRP, the “shrunken log2 fold change” value is -0.354.
Next, RRIRLRPPRLPRPRPRPTKMPRP: 0.0743.
The same measure for RRIRYRPPRLPRPRPRPQCYPRP: -0.0301.
